This assay concerns the target DPP9, short isoform (DPP9S), co-expressed with CARD8 for cryo-EM (human), Q86TI2. In words: cryo-EM structure. As to conditions: remark: other sources report otherwise.

B1: DPP9, short isoform (DPP9S), co-expressed with CARD8 for cryo-EM, Q86TI2-1 1-863 (enzyme)
chain: MATTGTPTADRGDAAATDDPAARFQVQKHSWDGLRSIIHGSRKYSGLIVNKAPHDFQFVQKTDESGPHSHRLYYLGMPYGSRENSLLYSEIPKKVRKEALLLLSWKQMLDHFQATPHHGVYSREEELLRERKRLGVFGITSYDFHSESGLFLFQASNSLFHCRDGGKNGFMVSPMKPLEIKTQCSGPRMDPKICPADPAFFSFINNSDLWVANIETGEERRLTFCHQGLSNVLDDPKSAGVATFVIQEEFDRFTGYWWCPTASWEGSEGLKTLRILYEEVDESEVEVIHVPSPALEERKTDSYRYPRTGSKNPKIALKLAEFQTDSQGKIVSTQEKELVQPFSSLFPKVEYIARAGWTRDGKYAWAMFLDRPQQWLQLVLLPPALFIPSTENEEQRLASARAVPRNVQPYVVYEEVTNVWINVHDIFYPFPQSEGEDELCFLRANECKTGFCHLYKVTAVLKSQGYDWSEPFSPGEDEFKCPIKEEIALTSGEWEVLARHGSKIWVNEETKLVYFQGTKDTPLEHHLYVVSYEAAGEIVRLTTPGFSHSCSMSQNFDMFVSHYSSVSTPPCVHVYKLSGPDDDPLHKQPRFWASMMEAASCPPDYVPPEIFHFHTRSDVRLYGMIYKPHALQPGKKHPTVLFVYGGPQVQLVNNSFKGIKYLRLNTLASLGYAVVVIDGRGSCQRGLRFEGALKNQMGQVEIEDQVEGLQFVAEKYGFIDLSRVAIHGWSYGGFLSLMGLIHKPQVFKVAIAGAPVTVWMAYDTGYTERYMDVPENNQHGYEAGSVALHVEKLPNEPNRLLILHGFLDENVHFFHTNFLVSQLIRAGKPYQLQIYPNERHSIRCPESGEHYEVTLLHFLQEYL
B1 had a stoichiometry N of 2.

The values above are taken from paper doi:10.1101/2021.01.13.426575.
